Where a chain is given by its changes, count along the chain named.
What was measured:
Assay in all cases: cAMP activity assay (pCRE β-galactosidase reporter), transfected HEK293T cells
Assay type in all cases: cell-based
RXFP1 M60A = target: T1, RXFP1 M60A (Homo sapiens, UniProt Q9HBX9, M82A); conditions: construct M60A, ±s.e.m.
T1 construct: cells expressing full-length RXFP1 and mutants; expressed in transfected cells; host or cells: HEK293T
T1 sequence (Q9HBX9 23-757 M82A limits assumed): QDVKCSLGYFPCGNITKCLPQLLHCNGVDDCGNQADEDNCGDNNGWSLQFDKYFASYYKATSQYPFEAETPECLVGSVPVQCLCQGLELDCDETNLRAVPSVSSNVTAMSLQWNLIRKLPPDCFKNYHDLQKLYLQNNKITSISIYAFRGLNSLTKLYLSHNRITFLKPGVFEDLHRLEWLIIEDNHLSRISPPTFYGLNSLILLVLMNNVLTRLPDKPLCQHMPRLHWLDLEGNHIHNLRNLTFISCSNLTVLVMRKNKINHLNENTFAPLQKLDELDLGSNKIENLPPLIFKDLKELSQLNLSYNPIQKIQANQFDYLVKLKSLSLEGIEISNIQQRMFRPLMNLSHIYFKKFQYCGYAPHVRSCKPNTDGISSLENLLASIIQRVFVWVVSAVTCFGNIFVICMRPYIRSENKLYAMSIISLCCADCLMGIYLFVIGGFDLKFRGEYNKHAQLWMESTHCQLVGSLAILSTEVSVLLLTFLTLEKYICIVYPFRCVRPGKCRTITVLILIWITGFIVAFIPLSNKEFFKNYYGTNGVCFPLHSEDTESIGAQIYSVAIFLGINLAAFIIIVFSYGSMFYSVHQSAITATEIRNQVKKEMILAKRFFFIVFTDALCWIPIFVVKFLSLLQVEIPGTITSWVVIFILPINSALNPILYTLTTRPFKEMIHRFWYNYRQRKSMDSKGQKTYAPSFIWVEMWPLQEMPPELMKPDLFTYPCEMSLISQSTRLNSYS
How it was run: (§1)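 Receptor signalling is measured as CRE-driven β-galactosidase activity after H2 relaxin exposure, using a colorimetric substrate read at 570 nm. Values are normalised to 5 μM Forskolin, pooled from at least three independent triplicate experiments.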

RXFP1 N43A = target: T2, RXFP1 N43A (Homo sapiens, UniProt Q9HBX9, N65A); conditions: construct N43A, ±s.e.m.
T2 construct: transiently transfected human embryonic kidney (HEK) 293T cells expressing full-length RXFP1 and mutants; expressed in transfected cells; host or cells: HEK293T
T2 sequence (Q9HBX9 23-757 N65A limits assumed): T1 sequence (Q9HBX9 23-757 M82A limits assumed) with N43A, A60M
How it was run: as §1

RXFP1 N44A = target: T3, RXFP1 N44A (Homo sapiens, UniProt Q9HBX9, N66A); conditions: construct N44A, ±s.e.m.
T3 construct: transiently transfected human embryonic kidney (HEK) 293T cells expressing full-length RXFP1 and mutants; expressed in transfected cells; host or cells: HEK293T
T3 sequence (Q9HBX9 23-757 N66A limits assumed): T1 sequence (Q9HBX9 23-757 M82A limits assumed) with N44A, A60M
How it was run: as §1

[1] = percentage of maximum response to 5 μM Forskolin

## H2 relaxin: two-chain 6-kDa peptide hormone structurally related to insulin; recombinant human gene-2 H2 relaxin provided by Corthera
RXFP1 M60A; cAMP reporter
  H2 relaxin pEC50: 11.20±0.03 (4)
RXFP1 M60A; [1]
  H2 relaxin Emax: 118.2±6.51 (4) %
RXFP1 N43A; cAMP reporter
  H2 relaxin pEC50: 9.06±0.48 (4)
RXFP1 N43A; [1]
  H2 relaxin Emax: 120.23±7.81 (4) %
RXFP1 N44A; cAMP reporter
  H2 relaxin pEC50: 11.0±0.1 (4)
RXFP1 N44A; [1]
  H2 relaxin Emax: 92.16±6.98 (4) %

From publication PMC4837482, “The complex binding mode of the peptide hormone H2 relaxin to its receptor RXFP1” (Nature Communications, 2016)
